Experiment [1] deals with scars produced on healing of wounds. The experiment can be described thus: Profilometry analysis of silicone moulds from scars, dosed twice approximately 24 hours apart. It is filed as in vivo, human. An excerpt:
Note that this is not a method of treatment in accordance with the invention, but (along with FIG. 6) serves to provide comparative data illustrating the surprising effectiveness of a method of treatment in accordance with the invention.

The test system of experiment [2] is 1 cm incisional rat wounds. In words: Rat model of wound healing and scarring, escalating versus constant doses, macroscopic VAS. It is filed as in vivo. As for the experimental part:
FIG. 11 is a graph comparing the mean differences between macroscopic VAS scores of scars formed on healing of 1 cm incisional rat wounds treated with a diluent control (“placebo treated wounds”), and scars formed on healing of wounds provided with one of the following regimes: • i) TGF-β3 control treatment using 20 ng TGF-β3 per centimetre; • ii) TGF-β3 control treatment using 100 ng TGF-β3 per centimetre; or • iii) TGFβ3 treatment using escalating doses of TGF-β3 administered in sequential incidences of treatment.
In each case the wounds were subject to two incidences of treatment, the first prior to wounding and the second approximately 24 hours later.
Placebo treated control wounds were provided with two incidences of treatment, each of which consisted of administration of a diluent. These placebo treated wounds provide a baseline value for scarring, with reference to which scar inhibition produced by TGF-β3 treatments may be determined. “Control treated wounds” were provided with two incidences of treatment, each comprising injections of TGF-β3 at either 20 ng/100 μl or 100 ng/100 μl (the same concentration of TGF-β3 being injected in each incidence of treatment). The “treated wounds” were provided with an escalating dose regimen in which the first incidence of treatment comprised an injection of 20 ng/100 μl TGFβ3, while the second incidence of treatment comprised an injection of 100 ng/100 μl TGFβ3.
Each animal received two wounds, and these were arranged so that the wounds of each animal included placebo treated wounds, as well as either treated wounds (examples treated using escalating doses of TGF-β3 administered in sequential incidences of treatment), or control treated wounds (receiving control treatment with TGF-β3 at the same dose in each incidence of treatment). This permits comparison between scars formed on healing of placebo treated wounds and treated or control treated wounds within the same subject. […]
Scars were assessed, and VAS scores produced, 70 days after wounding. […]

For a further experiment, the system named is human wounds. In words: Human study, two incidences of treatment approximately 24 hours apart, lay panel VAS scar scoring and macroscopic images. In kind it is in vivo. As for the experimental part:
In this study, control treatments using TGFβ3 and Placebo were administered in two incidences of treatment (each by intradermal injection), the first prior to wounding and the second approximately 24 hours after wounding. […] To test the effect of control treatment with TGF-β3, ToScar of the TGFβ3 scar was subtracted from the anatomically matched Placebo ToScar on the other arm on each subject. ToScar was calculated as the sum of VAS scores (mm) from week 6 and months 3, 4, 5, 6 and 7. The scars were scored by an independent lay panel at 6 time points after dosing (week 6, months 3-7) using a 100 mm VAS line.
The macroscopic images are from within subject scars produced on healing of placebo treated and TGFβ3 control treated wounds (dosed twice with 50 ng, 200 ng or 500 ng/100 μl TGFβ3 per cm of wound margin in two incidences of treatment approximately 24 hours apart) in a clinical trial conducted by the inventors. The same amount of TGF-β3 was administered in each incidence of treatment, and the amounts used are shown in the captions (50 ng/100 μl TGFβ3 per cm of wound margin shown top left, with placebo from the same subject top right; 200 ng/100 μl TGFβ3 per cm of wound margin shown middle left, with placebo from the same subject middle right; and 500 ng/100 μl TGFβ3 per cm of wound margin shown bottom left, with placebo from the same subject bottom right).
TGFβ3 and Placebo were administered by means of intradermal injection in two incidences of treatment, the first prior to wounding and the second approximately 24 hours later. […] The scars were scored by an independent lay panel at 6 time points after dosing (week 6, months 3-7) using a 100 mm VAS line.

Setting [3] is: dosed twice with 50 ng/100 μl per cm approximately 24 hours apart.
Setting [4] is: dosed twice with 200 ng/100 μl per cm approximately 24 hours apart.

B1: TGF-β3: well-known anti-scarring growth factor, Sequence ID No. 1; labelled "Juvista" in FIGS. 8 and 9 (protein, listed as Homo sapiens)
chain: ALDTNYCFRNLEENCCVRPLYIDFRQDLGWKWVHEPKGYYANFCSGPCPYLRSADTTHSTVLGLYNTLNPEASASPCCVPQDLEPLTILYYVGRTPKVEQLSNMVVKSCKCS
As to B1, in experiment [1] (setting [3]), the “reduction in scar surface area compared to placebo” value was found to be 30.21% and the scar surface area was found to be 12.823 mm^2. For the same molecule, in experiment [1] (setting [4]), the “reduction in scar raised volume compared to placebo” value worked out at 73.33%, the “reduction in scar surface area compared to placebo” value amounted to 75.19%, the scar raised volume turned out to be 0.0008 mm^3 and the scar surface area came out at 3.532 mm^2. Further, the “inhibition of scarring, 3-dimensional simulations” value in experiment [1] (dosed twice with 500 ng/100 μl per cm approximately 24 hours apart) is on record as “Maximal inhibition of scarring”. For the same molecule, the “scarring compared to placebo (macroscopic VAS)” value in experiment [2] (dosed twice with either 20 ng/100 μl or 100 ng/100 μl, 24 hours apart, 70 days after wounding) is “displayed a reduction in scarring”. Further, in experiment [2] (escalating: 20 ng/100 μl then 100 ng/100 μl approximately 24 hours later, 70 days after wounding), the “inhibition of scarring (macroscopic VAS) versus constant doses” value is on record as “much larger magnitude of effect”. For the same molecule, in experiment [2] (escalating: 20 ng/100 μl then 100 ng/100 μl approximately 24 hours later, 70 days post wounding), the “inhibition of scarring, macroscopic images” value is recorded as “greatest inhibition in scarring”. In addition, the “effectiveness relative to other doses” value in the experiment with human wounds (500 ng in each of two incidences of treatment separated by 24 hours) is given as “notably more effective than the others”. The “effectiveness relative to other doses (mean VAS scores over time)” value in the experiment with human wounds (500 ng per centimetre in each incidence of treatment, approximately 24 hours apart) is recorded as “surprisingly more effective than the other methods of treatment”. Further, the “inhibition of scarring, macroscopic images” value in the experiment on human wounds (500 ng/100 μl per cm twice approximately 24 hours apart (highest dose), versus 50 and 200 ng) is given as “greatest inhibition of scarring achieved”. Further, the inhibition of scarring result with human wounds (two applications of 5, 50, 200 and 500 ng/100 μl per cm, prior to and approximately 24 hours post-wounding) is on record as “effectively inhibited”. In addition, the “inhibition of scarring (mean VAS scores over time)” value in the experiment on human wounds (two applications of 5, 50, 200 or 500 ng/100 μl per cm, prior to wounding and approximately 24 hour post-wounding, week 6 to month 7) is reported as “scarring is inhibited”.

(Values after patent publication US20100266532A1, “METHODS FOR INHIBITING SCARRING” (Renovo Limited, priority 2007, published 2010).)
